In PMC11574045, “A cofactor-induced repressive type of transcription factor condensation can be induced by synthetic peptides to suppress tumorigenesis” (The EMBO Journal, 2024):

B1: NR2B3/RXRG (protein, UniProt P28705 1-463, looked up)
Retinoic acid receptor …: MYGNYSHFMKFPTGFGGSPGHTGSTSMSPSVALPTGKPMDSHPSYTDTPVSAPRTLSAVGTPLNALGSPYRVITSAMGPPSGALAAPPGINLVAPPSSQLNVVNSVSSSEDIKPLPGLPGIGNMNYPSTSPGSLVKHICAICGDRSSGKHYGVYSCEGCKGFFKRTIRKDLIYTCRDNKDCLIDKRQRNRCQYCRYQKCLVMGMKREAVQEERQRSRERAESEAECASSSHEDMPVERILEAELAVEPKTESYGDMNVENSTNDPVTNICHAADKQLFTLVEWAKRIPHFSDLTLEDQVILLRAGWNELLIASFSHRSVSVQDGILLATGLHVHRSSAHSAGVGSIFDRVLTELVSKMKDMQMDKSELGCLRAIVLFNPDAKGLSNPSEVETLREKVYATLEAYTKQKYPEQPGRFAKLLLRLPALRSIGLKCLEHLFFFKLIGDTPIDSFLMEMLETPLQIT
B2: NR5A1/FTZ-F1A (protein, UniProt P33242 1-462, looked up)
Steroidogenic factor 1: MDYSYDEDLDELCPVCGDKVSGYHYGLLTCESCKGFFKRTVQNNKHYTCTESQSCKIDKTQRKRCPFCRFQKCLTVGMRLEAVRADRMRGGRNKFGPMYKRDRALKQQKKAQIRANGFKLETGPPMGVPPPPPPPPDYMLPPSLHAPEPKALVSGPPSGPLGDFGAPSLPMAVPGPHGPLAGYLYPAFSNRTIKSEYPEPYASPPQQPGPPYSYPEPFSGGPNVPELILQLLQLEPEEDQVRARIVGCLQEPAKSRSDQPAPFSLLCRMADQTFISIVDWARRCMVFKELEVADQMTLLQNCWSELLVLDHIYRQVQYGKEDSILLVTGQEVELSTVAVQAGSLLHSLVLRAQELVLQLHALQLDRQEFVCLKFLILFSLDVKFLNNHSLVKDAQEKANAALLDYTLCHYPHCGDKFQQLLLCLVEVRALSMQAKEYLYHKHLGNEMPRNNLLIEMLQAKQT
B3: NR1H2/LXRB (protein, UniProt P55055 1-460, looked up)
Oxysterols receptor LXR-beta: MSSPTTSSLDTPLPGNGPPQPGAPSSSPTVKEEGPEPWPGGPDPDVPGTDEASSACSTDWVIPDPEEEPERKRKKGPAPKMLGHELCRVCGDKASGFHYNVLSCEGCKGFFRRSVVRGGARRYACRGGGTCQMDAFMRRKCQQCRLRKCKEAGMREQCVLSEEQIRKKKIRKQQQESQSQSQSPVGPQGSSSSASGPGASPGGSEAGSQGSGEGEGVQLTAAQELMIQQLVAAQLQCNKRSFSDQPKVTPWPLGADPQSRDARQQRFAHFTELAIISVQEIVDFAKQVPGFLQLGREDQIALLKASTIEIMLLETARRYNHETECITFLKDFTYSKDDFHRAGLQVEFINPIFEFSRAMRRLGLDDAEYALLIAINIFSADRPNVQEPGRVEALQQPYVEALLSYTRIKRPQDQLRFPRMLMKLVSLRTLSSVHSEQVFALRLQDKKLPPLLSEIWDVHE
B4: NR2C1/TR2A (protein, UniProt Q505F1 1-590, looked up)
Nuclear receptor subfamily 2 …: MATIEEIAHQIIDQQMGEIVTEQQTGQKIQIVTALDHSTQGKQFILANHEGSTPGKVFLTTPDAAGVNQLFFTSPDLSAPHLQLLTEKSPDQGPNKVFDLCVVCGDKASGRHYGAITCEGCKGFFKRSIRKNLVYSCRGSKDCVINKHHRNRCQYCRLQRCIAFGMKQDSVQCERKPIEVSREKSSNCAASTEKIYIRKDLRSPLAATPTFVTDSETARSAGLLDSGMFVNIHPSGIKTEPAMLMAPDKAESCQGDLSTLASVVTSLANLGKAKDLSHCGGDMPVVQSLRNGDTSFGAFHHDIQTNGDVSRAFDTLAKALTPGESSACQSPEEGMEGSPHLIAGEPSFVEKEGPLLSESHVAFRLTMPSPMPEYLNVHYIGESASRLLFLSMHWALSIPSFQALGQENSISLVKAYWNELFTLGLAQCWQVMNVATILATFVNCLHSSLQQDKMSPERRKSLMEHIFKLQEFCNSMVKLCIDGHEYAYLKAIVLFSPDHPGLENMELIERFQEKAYVEFQDYITRTYPDDTYRLSRLLLRLPALRLMNATITEELFFKGLIGNVRIDSVIPHILKMEPADYNSQIIGHSL
B5: NR1I3/CAR1 (protein, UniProt Q14994 1-352, looked up)
Nuclear receptor subfamily 1 …: MASREDELRNCVVCGDQATGYHFNALTCEGCKGFFRRTVSKSIGPTCPFAGSCEVSKTQRRHCPACRLQKCLDAGMRKDMILSAEALALRRAKQAQRRAQQTPVQLSKEQEELIRTLLGAHTRHMGTMFEQFVQFRPPAHLFIHHQPLPTLAPVLPLVTHFADINTFMVLQVIKFTKDLPVFRSLPIEDQISLLKGAAVEICHIVLNTTFCLQTQNFLCGPLRYTIEDGARVSPTVGFQVEFLELLFHFHGTLRKLQLQEPEYVLLAAMALFSPDRPGVTQRDEIDQLQEEMALTLQSYIKGQQRRPRDRFLYAKLLGLLAELRSINEAYGYQIQHIQGLSAMMPLLQEICS
B6: NR2F6 (protein, UniProt P10588 1-404, looked up)
Nuclear receptor subfamily 2 …: MAMVTGGWGGPGGDTNGVDKAGGYPRAAEDDSASPPGAASDAEPGDEERPGLQVDCVVCGDKSSGKHYGVFTCEGCKSFFKRSIRRNLSYTCRSNRDCQIDQHHRNQCQYCRLKKCFRVGMRKEAVQRGRIPHSLPGAVAASSGSPPGSALAAVASGGDLFPGQPVSELIAQLLRAEPYPAAAGRFGAGGGAAGAVLGIDNVCELAARLLFSTVEWARHAPFFPELPVADQVALLRLSWSELFVLNAAQAALPLHTAPLLAAAGLHAAPMAAERAVAFMDQVRAFQEQVDKLGRLQVDSAEYGCLKAIALFTPDACGLSDPAHVESLQEKAQVALTEYVRAQYPSQPQRFGRLLLRLPALRAVPASLISQLFFMRLVGKTPIETLIRDMLLSGSTFNWPYGSGQ
B7: NR3C2 (protein, UniProt P08235 1-984, looked up)
Mineralocorticoid receptor: METKGYHSLPEGLDMERRWGQVSQAVERSSLGPTERTDENNYMEIVNVSCVSGAIPNNSTQGSSKEKQELLPCLQQDNNRPGILTSDIKTELESKELSATVAESMGLYMDSVRDADYSYEQQNQQGSMSPAKIYQNVEQLVKFYKGNGHRPSTLSCVNTPLRSFMSDSGSSVNGGVMRAVVKSPIMCHEKSPSVCSPLNMTSSVCSPAGINSVSSTTASFGSFPVHSPITQGTPLTCSPNVENRGSRSHSPAHASNVGSPLSSPLSSMKSSISSPPSHCSVKSPVSSPNNVTLRSSVSSPANINNSRCSVSSPSNTNNRSTLSSPAASTVGSICSPVNNAFSYTASGTSAGSSTLRDVVPSPDTQEKGAQEVPFPKTEEVESAISNGVTGQLNIVQYIKPEPDGAFSSSCLGGNSKINSDSSFSVPIKQESTKHSCSGTSFKGNPTVNPFPFMDGSYFSFMDDKDYYSLSGILGPPVPGFDGNCEGSGFPVGIKQEPDDGSYYPEASIPSSAIVGVNSGGQSFHYRIGAQGTISLSRSARDQSFQHLSSFPPVNTLVESWKSHGDLSSRRSDGYPVLEYIPENVSSSTLRSVSTGSSRPSKICLVCGDEASGCHYGVVTCGSCKVFFKRAVEGQHNYLCAGRNDCIIDKIRRKNCPACRLQKCLQAGMNLGARKSKKLGKLKGIHEEQPQQQQPPPPPPPPQSPEEGTTYIAPAKEPSVNTALVPQLSTISRALTPSPVMVLENIEPEIVYAGYDSSKPDTAENLLSTLNRLAGKQMIQVVKWAKVLPGFKNLPLEDQITLIQYSWMCLSSFALSWRSYKHTNSQFLYFAPDLVFNEEKMHQSAMYELCQGMHQISLQFVRLQLTFEEYTIMKVLLLLSTIPKDGLKSQAAFEEMRTNYIKELRKMVTKCPNNSGQSWQRFYQLTKLLDSMHDLVSDLLEFCFYTFRESHALKVEFPAMLVEIISDQLPKVESGNAKPLYFHRK

tested on: HEK293FT cells transfected with TF library; assay: Screening of TF condensates based on fluorescent puncta; assay type: cell-based; conditions: Figure 1B numerical data; TF library screen, one value per transcriptional factor
In short: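 TF plasmids (final 1.6 μg/ml) reverse-transfected with PEI (4.8 μg/ml) into HEK293FT cells; after 60 h, cells cultured ±glucose for 12 h, fixed in 4% PFA and immunostained for Flag or GAL4 tags with Alexa 488 secondaries. Puncta scored by automated imaging of 50 random fields per well.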

| Molecule | Z score of condensed fraction |
| --- | --- |
| B1 | -0.7251 |
| B2 | -0.1726 |
| B3 | 0.2806 |
| B4 | -0.6816 |
| B5 | -0.6844 |
| B6 | 2.586 |
| B7 | -0.7191 |
